Measured values published in publication PMC4068969, “SacPox from the thermoacidophilic crenarchaeon Sulfolobus acidocaldarius is a proficient lactonase” (BMC Research Notes, 2014).
Read-outs that look alike come from different tables or passages of the source.

Key:
SacPox [1] = biological target: T1, SacPox (Sulfolobus acidocaldarius, UniProt Q4J6Z8); experiment: p-nitrophenolate release, […] nm; assay type: biochemical; conditions: 50 mM HEPES pH 8, 150 mM NaCl, 0.2 mM CoCl2, 25°C, cobalt cofactor; for Km: no SDS
T1 construct: gene pte; recombinant in E. coli BL21(DE3)-pGro7/GroEL with CoCl2

SacPox [2] = biological target: T1, SacPox; experiment: phenyl acetate hydrolysis, […] nm; assay type: biochemical; conditions: 50 mM HEPES pH 8, 150 mM NaCl, 0.2 mM CoCl2, 25°C; cobalt cofactor
SacPox [3] = biological target: T1, SacPox; assay type: biochemical; conditions: 2.5 mM Bicine pH 8.3, 150 mM NaCl, 0.2 mM CoCl2, 0.5% DMSO, 25°C; cobalt cofactor
CCCC1CCC(=O)O1 = experiment: purified protein; assay type: biochemical, Sulfolobus acidocaldarius; conditions: 2.5 mM Bicine pH 8.3, 150 mM NaCl, 0.2 mM CoCl2, 0.5% DMSO, 25°C, cobalt cofactor
CCCCC1CCCC(=O)O1 = experiment: purified protein; assay type: biochemical, Sulfolobus acidocaldarius; conditions: 2.5 mM Bicine pH 8.3, 150 mM NaCl, 0.2 mM CoCl2, 0.5% DMSO, 25°C, cobalt cofactor
[4] = test system: CCCCCC(=O)CC(=O)N[C@H]1CCOC1=O; experiment: purified protein; assay type: biochemical, Sulfolobus acidocaldarius; conditions: 2.5 mM Bicine pH 8.3, 150 mM NaCl, 0.2 mM CoCl2, 0.5% DMSO, 25°C, cobalt cofactor
CCCCCC1CCC(=O)O1 = experiment: purified protein; assay type: biochemical, Sulfolobus acidocaldarius; conditions: 2.5 mM Bicine pH 8.3, 150 mM NaCl, 0.2 mM CoCl2, 0.5% DMSO, 25°C, cobalt cofactor
CCCCCCC1CCCC(=O)O1 = experiment: purified protein; assay type: biochemical, Sulfolobus acidocaldarius; conditions: 2.5 mM Bicine pH 8.3, 150 mM NaCl, 0.2 mM CoCl2, 0.5% DMSO, 25°C, cobalt cofactor
[5] = test system: CCCCCCCC(=O)CC(=O)N[C@H]1CCOC1=O; experiment: purified protein; assay type: biochemical, Sulfolobus acidocaldarius; conditions: 2.5 mM Bicine pH 8.3, 150 mM NaCl, 0.2 mM CoCl2, 0.5% DMSO, 25°C, cobalt cofactor
CCCCCCCC(=O)NC1CCOC1=O = experiment: purified protein; assay type: biochemical, Sulfolobus acidocaldarius; conditions: 2.5 mM Bicine pH 8.3, 150 mM NaCl, 0.2 mM CoCl2, 0.5% DMSO, 25°C, cobalt cofactor
CCCCCCCC1CCCC(=O)O1 = experiment: purified protein; assay type: biochemical, Sulfolobus acidocaldarius; conditions: 2.5 mM Bicine pH 8.3, 150 mM NaCl, 0.2 mM CoCl2, 0.5% DMSO, 25°C, cobalt cofactor
CCCCCCCCC1CCC(=O)O1 = experiment: purified protein; assay type: biochemical, Sulfolobus acidocaldarius; conditions: 2.5 mM Bicine pH 8.3, 150 mM NaCl, 0.2 mM CoCl2, 0.5% DMSO, 25°C, cobalt cofactor

## COP(=O)(OC)Oc1ccc([N+](=O)[O-])cc1 [Methyl Paraoxon]
SacPox [1]
  Km: 278 ± 40 µM

## CCOP(=O)(OCC)Oc1ccc([N+](=O)[O-])cc1 [Paraoxon]
SacPox [1]
  Km: 434 ± 54 µM

## CC(=O)Oc1ccccc1 [Phenyl-acetate]
SacPox [2]
  K M (μM): 8 181 ± 1750 μM

## CC(=O)Oc1ccc([N+](=O)[O-])cc1 [pNP-acetate]
SacPox [1]
  K M (μM): 2 107 ± 313 μM

## O=C1CCCCCO1 [ϵ caprolactone]
SacPox [3]
  K M (μM): 1 031 ± 83 μM

## SacPox (Sulfolobus acidocaldarius DSM 639)
CCCC1CCC(=O)O1
  Km: 388 ± 62 µM
  kcat: 10.2 ± 0.5 s⁻¹
  kcat/Km: 26400 ± 4400 M⁻¹ s⁻¹
CCCCC1CCCC(=O)O1
  Km: 348 ± 53 µM
  kcat: 4.55 ± 0.21 s⁻¹
  kcat/Km: 13100 ± 2100 M⁻¹ s⁻¹
[4]
  Km: 836 ± 178 µM
  kcat: 0.89 ± 0.07 s⁻¹
  kcat/Km: 1070 ± 250 M⁻¹ s⁻¹
CCCCCC1CCC(=O)O1
  Km: 109 ± 19 µM
  kcat: 2.64 ± 0.07 s⁻¹
  kcat/Km: 24400 ± 4400 M⁻¹ s⁻¹
CCCCCCC1CCCC(=O)O1
  Km: 168 ± 37 µM
  kcat: 1.05 ± 0.05 s⁻¹
  kcat/Km: 6220 ± 1400 M⁻¹ s⁻¹
[5]
  Km: 213 ± 33 µM
  kcat: 1.03 ± 0.04 s⁻¹
  kcat/Km: 4880 ± 770 M⁻¹ s⁻¹
CCCCCCCC(=O)NC1CCOC1=O
  Km: 178 ± 26 µM
  kcat: 0.94 ± 0.02 s⁻¹
  kcat/Km: 5280 ± 770 M⁻¹ s⁻¹
CCCCCCCC1CCCC(=O)O1
  Km: 185 ± 27 µM
  kcat: 3.34 ± 0.07 s⁻¹
  kcat/Km: 18100 ± 2700 M⁻¹ s⁻¹
CCCCCCCCC1CCC(=O)O1
  Km: 242 ± 60 µM
  kcat: 0.53 ± 0.03 s⁻¹
  kcat/Km: 2210 ± 570 M⁻¹ s⁻¹
